Strand notation (5' to 3'): a small letter for the sugar, then the base; units joined by * are phosphorothioate-linked, units joined directly phosphodiester-linked; [ ] holds rarer units or linkages, { } end groups; capitals alone tell only the bases. m = 2'-O-methyl; r = 2'-OH (RNA)
Experiments:
[1] = system: potential off-target candidate sites
Description: With a view towards establishing the safety of a base-editing therapy knocking down of TTR in the human liver in vivo, off-target mutagenesis analysis is assessed in primary human hepatocytes. […] The in vitro biochemical assay ONE-seq was used to generate a list of candidate off-target sites and to determine the propensity of a ribonucleoprotein comprising the ABE8.8 base editor protein and each of the three protospacer guides sequences (GA457, GA460, and GA461) to cleave oligonucleotides in a library.
For human ONE-seq libraries, the reference human genome (GRCh38, Ensembl v98, chromosomes ftp://ftp.ensembl.org/pub/release-98/fasta/homo_sapiens/dna/Homo_sapiens.GRCh38.dna.chromosome.{1-22,X,Y,MT}.fa and ftp://ftp.ensembl.org/pub/release-98/fasta/homo_sapiens/dna/Homo_sapiens.GRCh38.dna.nonchromosomal.fa), was searched for potential off-target sites with up to 6 mismatches to the protospacer sequence above, and sites with up to 4 mismatches plus up to 2 DNA or RNA bulges, using Cas-Designer v1.2 (http://www.rgenome.net/cas-designer/).
For each site, the total number of edited reads was normalized to the total number of edited reads assigned to the on-target site, and this ratio defines the ONE-seq score for the site. Sites were ranked by ONE-seq score, and those with a score equal to or larger than 0.001, were selected for validation. A score equal to or larger than 0.001 encompasses sites that have down to 1000-fold less editing activity in the biochemical assay compared to editing of the on-target site. This threshold is based on the premise that in cells, if there is 10000 on-target editing, 1/1000-fold less editing activity would translate to % 0.1% off-target editing, which falls below the lower limit of detection of editing by NGS.
(§2) Several candidate off-target sites were analyzed for off-target editing in human primary hepatocytes.

TTR on-target site = assay: Off-target validation in human primary hepatocytes: editing at the on-target site; type: cell-based; details: for on-target site editing efficiency (in words): treated vs control, human primary hepatocytes
Description: as §2

human TTR gene = assay: Editing activity in human primary hepatocytes (gRNA + ABE8.8 mRNA co-transfection, NGS of PCR amplicons); type: cell-based; details: for Human hepatocytes - Editing %, 625, rep 1 / Human hepatocytes - Editing %, 625, rep 2: 625 ng/RNA/mL; for Human hepatocytes - Editing %, 1250, rep 1 / Human hepatocytes - Editing %, 1250, rep 2: 1250 ng/RNA/mL; for Human hepatocytes - Editing %, 2500, rep 1 / Human hepatocytes - Editing %, 2500, rep 2: 2500 ng/RNA/mL; for editing activity in human primary hepatocytes (in words): ABE8.8 mRNA co-transfection
Description: With this example, gRNA sequences were identified that permit ABE8.8 (and other ABE variants containing Streptococcus pyogenes Cas9, such as ABE7.10, or another Cas protein that can use the NGG PAM) to either: 1) disrupt the start codon, or 2) disrupt splice sites, whether donors or acceptors, via A→G editing within its editing window (roughly positions 4 to 7 in the 20-nt protospacer region of DNA). Five sequences were identified throughout the human TTR gene (Table 1). gRNAs were synthesized matching each of the protospacer sequences and otherwise conforming to the standard 100-nt Streptococcus pyogenes CRISPR gRNA sequence, with each gRNA molecule having a minimal degree of chemical modifications (specified in Table 1).
(§1) The mRNA, and corresponding amino acid, sequence of the ABE8.8 (MA004) used in shown below in Table 11. Three days after transfection, genomic DNA was harvested from the hepatocytes, and assessed for base editing with next-generation sequencing of PCR amplicons generated around the target splice site. […] See FIGS. 5A-5C, FIG. 6, and Tables 2-3.

[2] = system: cynomolgus monkey TTR gene; assay: Editing activity in cyno primary hepatocytes (gRNA + ABE8.8 mRNA transfection, NGS); type: cell-based; details: for Cyno hepatocytes - Editing %, 156.25: 156.25 ng/RNA/mL; for Cyno hepatocytes - Editing %, 312.5: 312.5 ng/RNA/mL; for Cyno hepatocytes - Editing %, 625: 625 ng/RNA/mL; for Cyno hepatocytes - Editing %, 1250: 1250 ng/RNA/mL; for Cyno hepatocytes - Editing %, 2500: 2500 ng/RNA/mL; for Cyno hepatocytes - Editing %, 5000: 5000 ng/RNA/mL; for editing activity in cynomolgus primary hepatocytes (in words): ABE8.8 mRNA co-transfection
Description: as §1

Row | Molecule | off-target editing at candidate off-target sites (in words) [1] | on-target site editing efficiency (in words) (TTR on-target site) | Human hepatocytes - Editing %, 625, rep 1 (human TTR gene) [%] | Human hepatocytes - Editing %, 625, rep 2 (human TTR gene) [%] | Human hepatocytes - Editing %, 1250, rep 1 (human TTR gene) [%] | Human hepatocytes - Editing %, 1250, rep 2 (human TTR gene) [%] | Human hepatocytes - Editing %, 2500, rep 1 (human TTR gene) [%] | Human hepatocytes - Editing %, 2500, rep 2 (human TTR gene) [%] | editing activity in human primary hepatocytes (in words) (human TTR gene) | Cyno hepatocytes - Editing %, 156.25 [2] [%] | Cyno hepatocytes - Editing %, 312.5 [2] [%] | Cyno hepatocytes - Editing %, 625 [2] [%] | Cyno hepatocytes - Editing %, 1250 [2] [%] | Cyno hepatocytes - Editing %, 2500 [2] [%] | Cyno hepatocytes - Editing %, 5000 [2] [%] | editing activity in cynomolgus primary hepatocytes (in words) [2] | other results
1 | GA461: Human/Cyno TTR guide RNA, spacer UACUCACCUCUGCAUGCUCA, gRNA SEQ ID NO: 15 (nucleic acid, chemistry not given here) guide: TACTCACCTCTGCATGCTCAGTTTTAGAGCTAGAAATAGCAAGTTAAAATAAGGCTAGTCCGTTATCAACTTGAAAAAGTGGCACCGAGTCGGTGCTTTT | little to no off-target editing | high editing efficiency | 21.81 | 22.31 | 32.82 | 32.38 | 40.42 | 39.43 | high editing activity | 0.07 | 7.45 | 13.16 | 19.46 | 29.8 | 37.53 | high editing activity | SUM Editing % - Human Primary Hepatocytes, Treat rep 2 (TTR on-target site; On-target TACTCACCTCTGCATGCTCA): 58.9%
2 | GA458: Cyno TTR guide RNA, cynomolgus equivalent of GA457, spacer GCCAUCCUGCCAAGAACGAG, gRNA SEQ ID NO: 29 (nucleic acid) guide: mG*mC*mC*rArUrCrCrUrGrCrCrArArGrArArCrGrArGrGrUrUrUrUrArGrArGrCrUrArGrArArArUrArGrCrArArGrUrUrArArArArUrArArGrGrCrUrArGrUrCrCrGrUrUrArUrCrArArCrUrUrGrArArArArArGrUrGrGrCrArCrCrGrArGrUrCrGrGrUrGrCrU*mU*mU*mU |  |  |  |  |  |  |  |  |  | 6.06 | 10.65 | 16.07 | 22.74 | 27.25 | 35.91 | high editing activity | 
3 | GA460: Human/Cyno TTR guide RNA, spacer UAUAGGAAAACCAGUGAGUC, gRNA SEQ ID NO: 14 (nucleic acid, chemistry not given here) guide: TATAGGAAAACCAGTGAGTCGTTTTAGAGCTAGAAATAGCAAGTTAAAATAAGGCTAGTCCGTTATCAACTTGAAAAAGTGGCACCGAGTCGGTGCTTTT | little to no off-target editing | high editing efficiency | 23.77 | 22.27 | 38.33 | 35.8 | 47.61 | 47.79 | high editing activity | 1.62 | 11.22 | 18.44 | 31.71 | 38.25 | 40.16 | high editing activity | SUM Editing % - Human Primary Hepatocytes, Treat rep 1 (TTR on-target site; On-target TATAGGAAAACCAGTGAGTC): 76.4%; SUM Editing % - Human Primary Hepatocytes, Treat rep 2 (TTR on-target site; On-target TATAGGAAAACCAGTGAGTC): 74.3%
4 | GA457: Human TTR guide RNA, spacer GCCAUCCUGCCAAGAAUGAG, gRNA SEQ ID NO: 11 (nucleic acid, chemistry not given here) guide: GCCATCCTGCCAAGAATGAGGTTTTAGAGCTAGAAATAGCAAGTTAAAATAAGGCTAGTCCGTTATCAACTTGAAAAAGTGGCACCGAGTCGGTGCTTTT | little to no editing | high editing efficiency | 17.24 | 15.39 | 26.49 | 24.86 | 33.96 | 31.31 | high editing activity |  |  |  |  |  |  |  | net editing at all off-target sites ([1]; 47 candidate off-target sites, human primary hepatocytes): less than 0.40; % Editing - human primary hepatocytes, Net (TTR on-target site; On-target GCCATCCTGCCAAGAATGAG): 54.1%; % Editing - human primary hepatocytes, Treated (TTR on-target site; On-target GCCATCCTGCCAAGAATGAG): 54.21%
5 | GA459: Human TTR guide RNA, spacer GCAACUUACCCAGAGGCAAA, gRNA SEQ ID NO: 13 (nucleic acid, chemistry not given here) guide: GCAACTTACCCAGAGGCAAAGTTTTAGAGCTAGAAATAGCAAGTTAAAATAAGGCTAGTCCGTTATCAACTTGAAAAAGTGGCACCGAGTCGGTGCTTTT | little to no off-target editing | high editing efficiency | 3.79 | 3.89 | 5.46 | 6.15 | 8.5 | 8.69 |  |  |  |  |  |  |  |  | SUM Editing % - Human Primary Hepatocytes, Treat rep 1 (TTR on-target site; On-target GCAACTTACCCAGAGGCAAA): 14.17%; SUM Editing % - Human Primary Hepatocytes, Treat rep 2 (TTR on-target site; On-target GCAACTTACCCAGAGGCAAA): 14.29%
